Measurements as given in patent US7807387B2, “Biological agent that causes IL-6 receptor release” (Meyer Pharmaceuticals LLC, priority 2003, dated 2010).

Legend:
IL-6 Receptor = IL-6 Receptor (Homo sapiens, UniProt P08887); assay: FRET peptide cleavage assay, IL-6 receptor peptide; assay type: biochemical; conditions: Zn++ 0.1 mM, Ca++ 2 mM, corrected for EDTA, 37° C. for 3 hours
Procedure: (§1) Cytokine-specific proteolytic activity can rapidly be quantified by Fluorescence Resonance Energy Transfer (FRET). Peptides having the amino acid sequence of the TNF Receptor or other protein substrates are labeled at opposite ends with a fluorescence emitter and a fluorescence quencher. The peptide is then incubated with a source of receptor cleaving enzyme, and fluorescence is measured. The quenching group normally absorbs fluorescence from the emitter. But enzymatic cleavage of the peptide decouples the quenching group, and fluorescence emission increases proportionally.
(§2) The peptides used as substrates in the cleavage assay were taken from the known sites of proteolytic cleavage of the whole protein. The peptides were labeled with the fluorescence emitter (Edans-●) at the C-terminal, and the quenching hapten (Dabcyl-▴) at the N-terminal.
(§3) The assay is conducted in the presence of the metal cations Zn^++ (0.1 mM) and Ca^++ (2 mM), and corrected for cleavage in the presence of EDTA (20 mM). Dependence on divalent cations confirms that the enzyme activity measured in this assay is a metalloprotease. The assay mixture also contains a cocktail of protease inhibitors and bovine albumin. Cleavage is measured as the net change in fluorescence emission after incubating the enzyme with the peptide at 37° C. for 3 hours. […]

[1] = system: collagen-induced arthritis; assay: Collagen-induced arthritis, treatment of established disease; assay type: in vivo
Procedure: Collagen-induced arthritis is a standard model for evaluating potential therapeutic agents for rheumatoid arthritis (Courtenay et al., Nature 283:666, 1980; Williams et al., Proc Natl Acad Sci USA 89:9784, 1992; Gerlag et al., J Immunol 165:1652, 2000). Arthritis was induced in 7-9 week old female DBA/1 LacJ mice by immunization with collagen. On day 0, the mice were injected at the base of the tail with 100 μg bovine type II collagen in complete Freund's adjuvant. On day 7, mice were boosted with an intraperitoneal injection of 100 μg collagen. To enhance and synchronize synovitis, the mice were injected subcutaneously on day 14 with 100 μg of lipopolysaccharide (LPS). Joint swelling was monitored in a blinded fashion by measuring the diameter in all 4 paws and both ankles using a constant pressure gauge. Arthritis Index was also determined on the following scale, and summed for all extremities. 0≡normal; 1≡one digit swollen; 2≡more than one digit swollen; 3≡joint distortion; 4≡ankylosis. The arthritis experiments were conducted under contract by Calvert Preclinical Services, Inc., Olyphant Pa.
Mice were immunized with collagen on days 0, and 7, and then boosted with LPS on day 14. Treatment with MP8 was initiated on day 22 when arthritis was well established. At that time, animals with arthritis were randomized into three groups, and unaffected animals were excluded. The three affected groups were then treated for 18 consecutive days with saline control, or with MP8 at either of two different doses.

[2] = system: human IL-1 type 1 and type 2 receptors; assay: FRET peptide cleavage assay, IL-1 receptor peptides; assay type: biochemical
Procedure: as §1, §2, §3

p75 TNF Receptor = molecular target: T1, p75 TNF Receptor (Homo sapiens, UniProt P20333); assay: Cleavage of cell surface p75 TNF receptor on THP-1 cells; assay type: cell-based; conditions: 45 minutes at 37° C.
T1 construct: endogenous in cells; host or cells: THP-1
T1 sequence (P20333 23-461): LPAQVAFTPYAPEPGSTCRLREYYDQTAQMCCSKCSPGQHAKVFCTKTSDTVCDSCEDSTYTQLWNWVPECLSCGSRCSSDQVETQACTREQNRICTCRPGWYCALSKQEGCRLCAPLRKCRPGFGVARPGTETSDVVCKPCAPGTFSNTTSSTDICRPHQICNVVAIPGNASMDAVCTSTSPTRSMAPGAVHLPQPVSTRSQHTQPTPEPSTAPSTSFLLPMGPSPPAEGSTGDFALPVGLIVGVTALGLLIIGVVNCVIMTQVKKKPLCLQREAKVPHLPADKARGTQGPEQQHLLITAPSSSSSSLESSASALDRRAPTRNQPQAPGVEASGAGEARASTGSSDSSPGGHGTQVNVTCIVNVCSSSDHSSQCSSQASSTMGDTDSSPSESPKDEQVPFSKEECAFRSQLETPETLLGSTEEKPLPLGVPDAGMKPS
Procedure: This cell line expresses both the p55 TNF receptor and the p75 TNF receptor. After incubating for 45 minutes at 37° C., the cells were washed, immunostained for cell surface receptor, and counted by flow cytometry.

p55 TNF Receptor = p55 TNF Receptor (Homo sapiens, UniProt P19438); assay: FRET peptide cleavage assay, p55 TNF receptor peptide; assay type: biochemical; conditions: Zn++ 0.1 mM, Ca++ 2 mM, corrected for EDTA, 37° C. for 3 hours
Procedure: as §1, §2, §3

LPS-induced septic shock = assay: LPS/galactosamine-induced septic shock model; assay type: in vivo, Balb/c mice
Procedure: A classic model for determining effectiveness of agents against cytokine-mediated inflammation is endotoxin-induced septic shock (Morrison et al., J Infect Dis 162:1063, 1990).
The septic shock experiment was conducted as follows. Female Balb/c mice were randomized by weight into 6 treatment groups. Sepsis was induced by injecting 10 μg LPS and 7 mg galactosamine in the lateral or dorsal caudal vein. Some of the groups were pretreated with 50,000 FU of MP8 simultaneously or 3 hours in advance of the LPS challenge to determine whether there was a protective effect.
FIG. 8 is a Kaplan-Meier survival curve, showing the mortality in each of the treatment groups in the study. Without any treatment or challenge, there is no effect on the animals, and the line stays at the top. Life-compromising challenge causes the line to fall to the bottom of the graph in a step-wise fashion as each animal succumbs. Treatment that is protective against the challenge maintains the line near the top of the graph.
The enzyme was administered in a volume of 110 μL at one hour before the LPS challenge.
Stability of the clinical effect of MP8 was determined in the septic shock model. Female Balb/c mice were injected with 300,000 FU of MP8 that had been stored for 4 days at −70° C., or 7 days at 4° C. One hour later, the mice were challenged with 10 μg LPS and 7 mg galactosamine as before.
In this example, durability of receptor cleavage in vivo was determined by treating animals subcutaneously up to three days in advance with 300,000 FU of MP8. The mice were then challenged with […] LPS and 7 mg galactosamine in the usual fashion.
Sepsis was induced in Balb/c mice by administering 10 μg LPS and […] galactosamine, as in Example 3. Randomized groups were pretreated with up to 40 μg MP8-FL2 one hours in advance of the LPS challenge.

B1: MP8: polypeptide having the sequence of SEQ. ID NO:41 (usually with a HIS tag); cytokine receptor releasing protein expressed in E. coli (protein, listed as Homo sapiens)
chain: WIQRIRHEGNSTVYEWRTGTEPSVVERPHLEELPEQVAEDAIDWGDFGVEAVSEGTDSGISAEAAGIDWGIFPESDSKDPGGDGIDWGDDAVALQITVLEAGTQAPEGVARGPDALTLLEYTETRNQFLDELMELEIFLAQRAVELSEEADVLSVSQFQLAPAILQGQTKEKMVTMVSVLEDLIGKLTSLQLQHLFMILASPRYVDRVTEFLQQKLKQSQLLALKKELMVQKQQEALEEQAALEPKLDLLLEKTKELQKLIEADISKRYSGRPVNLMGTSL
modifications: HIS tag
notes: ID NO:41 (usually with a HIS tag); cytokine receptor releasing protein expressed in E. coli
- cleavage of IL-6 receptor peptide (IL-6 Receptor): high activity
- toxicity ([1]; MP8 treated groups): No toxicity was detected
- swelling in the affected joints ([1]; daily for 18 days from day 22, two doses, p<0.001 vs control): highly significant reduction in swelling
- severity of inflammatory synovitis by histopathology ([1]; higher dose, end of experiment): lower severity of inflammatory synovitis
- level of antibodies to type II collagen in serum ([1]; low or high dose, ELISA, p<0.02): almost half the control
- cleavage of IL-1 receptor [2]: cleaves
- cleavage of p75 TNF receptor on the surface of cells (p75 TNF Receptor): cleaves
- cleavage of p55 TNF receptor (R1) peptide (p55 TNF Receptor): cleaves
- protection against LPS-induced septic shock (LPS-induced septic shock; 50,000 FU, simultaneously with LPS challenge or 3 hours in advance): fully protective
- clinical efficacy in septic shock model after storage (LPS-induced septic shock; 300,000 FU stored 4 days at −70° C. or 7 days at 4° C., one hour before challenge): can be frozen without causing a loss in clinical efficacy
- protection against septic shock when administered days in advance (LPS-induced septic shock; 300,000 FU subcutaneously up to three days in advance): able to protect most mice up to 3 days after administration
- protection against LPS-induced septic shock (LPS-induced septic shock; 300,000 FU, one hour before LPS challenge): completely protective
- protection against LPS-induced septic shock (LPS-induced septic shock; single dose of 30,000 FU, one hour before LPS challenge): able to protect a proportion of the challenged subjects
